In data set [1] the target is rSODSs, fusion of the N-terminal domain (NTD) of SOD NG2215 of Geobacillus thermodenitrificans NG80-2 with SODSs (Geobacillus thermodenitrificans NG80-2 | Sulfolobus solfataricus). Nature of the data set: AUC; sedimentation velocity, interference data, 36,000 rpm, An-60 Ti rotor, 4 °C; 50 mM potassium phosphate buffer plus 150 mM NaCl, pH 8.0; continuous c(s) distribution (SEDFIT).

Data set [2] concerns the molecule itself. The description is as above.

Values joined by “and” are separate entries in the source; they are usually repeats but may differ in a detail not shown here. Equal values may be shown once.

The values that follow come from publication PMC4771647, “Improving the thermostability and stress tolerance of an archaeon hyperthermophilic superoxide dismutase by fusion with a unique N-terminal domain” (SpringerPlus, 2016).

On to “rSODSs, fusion of the N-terminal domain (NTD) of SOD NG2215 of Geobacillus thermodenitrificans NG80-2 with SODSs (enzyme)”, for which the stoichiometry N in data set [1] is 4 and 2.

B1: superoxide dismutase from the archaeon Sulfolobus solfataricus (SODSs) (enzyme, UniProt P80857 1-211, looked up)
chain: MTLQIQFKKYELPPLPYKIDALEPYISKDIIDVHYNGHHKGYVNGANSLLERLEKVVKGDLQTGQYDIQGIIRGLTFNINGHKLHALYWENMAPSGKGGGKPGGALADLINKQYGSFDRFKQVFTETANSLPGTGWAVLYYDTESGNLQIMTFENHFQNHIAEIPIILILDEFEHAYYLQYKNKRADYVNAWWNVVNWDAAEKKLQKYLTK
notes: Fe superoxide dismutase (SODSs) of Sulfolobus solfataricus; gene synthesised into pET-28a (pET-SODSs); expected size 24.2 kDa; Tetramer by analytical ultracentrifugation (major peak), with small quantities of dimers; also called Fe-SODSs; native SODSs
As for B1, the “stoichiometry N” value in data set [2] was 4 and 2.
